For assay [1], the target named is full-length purified recombinant EWS-FLI1. Put plainly: SPR. A general note: SPR reads the build-up and loss of mass on a sensor chip optically.
For assay [2] the target is unchanged. Put plainly: co-IP.

With PPPLDAVIEA [E9R peptide, Q08211 823-832], in assay [1], the response units at 32 μM E9R worked out at 13 R.U, the response units at 32 μM E9R with 10 μM YK-4-279 came to 5 R.U, the response units at 64 μM E9R turned out to be 17 R.U and the response units at 64 μM E9R with 10 μM YK-4-279 came to 7 R.U. In assay [2], the percent of the GST-RHA(647-1075)/EWS-FLI1 association left with 0.1 μM E9R turned out to be 50%.
